The source of these data is PMC5531466, “Biochemical characterization of a new nicotinamidase from an unclassified bacterium thriving in a geothermal water stream microbial mat community” (PLoS ONE, 2017).

The term Ki denotes a measure of affinity in units of concentration, obtained from inhibition or displacement. For orientation: Km means the concentration of substrate that gives half-maximal velocity. The kcat is the maximal rate divided by the concentration of active sites. Broadly, the kcat/Km is the second-order rate constant that governs catalysis at low substrate concentration.

In series [1] the target is T1, (UniProt H5SPS2).
T1 construct: full-length, N-terminal 6-histidine tag (pET28a)
T1 sequence (H5SPS2 1-220): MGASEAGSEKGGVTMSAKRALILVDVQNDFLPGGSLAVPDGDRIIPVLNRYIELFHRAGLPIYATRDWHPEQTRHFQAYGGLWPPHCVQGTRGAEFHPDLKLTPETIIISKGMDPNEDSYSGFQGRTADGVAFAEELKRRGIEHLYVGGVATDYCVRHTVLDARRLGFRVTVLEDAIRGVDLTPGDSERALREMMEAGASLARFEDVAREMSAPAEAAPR
The experiment in a line: HPLC nicotinamidase assay, Morrison equation; also thermal shift (Tm […] °C). The series is classed as biochemical.

The subject of series [2] is COC(=O)c1cccnc1. The experiment in a line: purified protein. The conditions noted are these: Fe2+ active site.
In series [3] the test system is CCOC(=O)c1cccnc1. The experiment in a line: purified protein. Particulars: Fe2+ active site; C155 thiolate attack at C7 of ethylnicotinate.
Series [4] concerns NC(=O)c1cnccn1. The experiment in a line: purified protein. The conditions noted are these: Fe2+ active site.
Series [5] has as its system Cc1cncc(C(N)=O)c1. The experiment in a line: purified protein. The conditions noted are these: Fe2+ active site.

As for `O=Cc1cccnc1` [nicotinaldehyde], the Ki in series [1] was 180 ± 1 nM.
Consider “UbNic (nicotinamidase) (uncultured Acidobacteriota bacterium)”, for which the Km in series [2] came out at 1080 ± 110 µM; in series [3], 1310 ± 30 µM; in series [4], 330 ± 50 µM; in series [5], 1090 ± 200 µM. The kcat came to 54.5 ± 0.8 s⁻¹ in series [2], 3.7 ± 0.3 s⁻¹ in series [3], 18.7 ± 0.3 s⁻¹ in series [4] and 43.7 ± 0.3 s⁻¹ in series [5]. The kcat/Km was determined as 50500 M⁻¹ s⁻¹ in series [2], 2800 M⁻¹ s⁻¹ in series [3], 56700 M⁻¹ s⁻¹ in series [4] and 40100 M⁻¹ s⁻¹ in series [5].
